Laboratory results taken from patent US20250327097A1, “ORGANISMS PRODUCING LESS CROTONIC ACID” (Global Bioenergies, priority 2021, published 2025).
Changes are numbered by the printed parent chain. Names may count otherwise.

B1: I283T-P284D-N287P-S322T-P368S-N388M-E421V-C430N-L432F-L434W-S436N-dG462 (protein)
chain: MFLKSLREQINLLKRQGDLRIINRPVDSYLEAAAIIRRSTETKAPVPLMTNIKGYPGCSIVGGLAALSSNPEYPLSRVAMSLGLSTTASAQSIVQYLIDGLKKTPYLPVEIDSNSAPCKQNILRGEDASLAHFPIPQVHQHDGNRYVNTWGVFIVESPDGQWCNWSIQRVQYLNDRQMIALVFPSQHISDIWEEWVKIGKPMPYALVQGCEPIVPYIAGLPLLERNVNEAEYIGALYGKGIEVVKCETHDLRVPASSEVVIEGYFAITREGVEGPFGEFAGYTDNEPSLQPILSITAISWQDDPIWPVVAEGKPVDEYHTCTGIGDAAAIQNVLLTANLPVSFVWVPLYSACHLMIVSINRHWRQTHSDLTSEQLTKKVGDVIHQTRMSIKLPKIVVLDDDVDPADTESLLWALATRIHPVRKRYFYESNIFPWLNCYSEEERHNRKGKRVIIDALLPENHGAISSFDYAYPDDIKQRVLMHWETDFSHD
B2: I283T-N285P-N287T-Q290E-S322T-Q365S-N388M-K394R-C430A-L432F-L434W-S436N-G462P-A463P (protein)
chain: MFLKSLREQINLLKRQGDLRIINRPVDSYLEAAAIIRRSTETKAPVPLMTNIKGYPGCSIVGGLAALSSNPEYPLSRVAMSLGLSTTASAQSIVQYLIDGLKKTPYLPVEIDSNSAPCKQNILRGEDASLAHFPIPQVHQHDGNRYVNTWGVFIVESPDGQWCNWSIQRVQYLNDRQMIALVFPSQHISDIWEEWVKIGKPMPYALVQGCEPIVPYIAGLPLLERNVNEAEYIGALYGKGIEVVKCETHDLRVPASSEVVIEGYFAITREGVEGPFGEFAGYTPPETSLEPILSITAISWQDDPIWPVVAEGKPVDEYHTCTGIGDAAAIQNVLLTANLPVSFVWVPLYSACHLMIVSINRHWRSTHPDLTSEQLTKKVGDVIHQTRMSIKLPRIVVLDDDVDPADTESLLWALATRIHPERKRYFYESAIFPWLNCYSEEERHNRKGKRVIIDALLPENHPPISSFDYAYPDDIKQRVLMHWETDFSHD
B3: I283T-P284D-N285M-E286H-N287T-S322T-N388M-K394R-C430A-L432F-L434W-S436N-G462P-A463P (protein)
chain: B2 chain with P284D, P285M, E286H, E290Q, S365Q
B4: I283T-P284D-N287P-S322T-N388M-C430N-L432F-L434W-S436N-H461V-dG462 (protein)
chain: B1 chain with S368P, V421E, H461V
B5: N388M-K394R-C430N-L432F-L434W-S436N-H444R (protein)
chain: B1 chain with T283I, D284P, P287N, T322S, S368P, K394R, V421E, H444R
B6: I283T-P284D-N287P-S322T-N388M-C430N-L432F-L434W-S436N-dG462-A463T (protein)
chain: B1 chain with S368P, V421E, A463T
B7: I283T-P284D-N285M-E286N-N287T-S322T-N388M-K394R-C430A-L432F-L434W-S436N-G462P-A463P (protein)
chain: B2 chain with P284D, P285M, E286N, E290Q, S365Q
B8: I283T-P284D-N285L-N287T-S322T-N388M-K394R-C430A-L432F-L434W-S436N-G462P-A463P (protein)
chain: B2 chain with P284D, P285L, E290Q, S365Q
B9: I283T-P284D-N287P-S322T-N388M-C430N-L432F-L434W-S436N-H461A-dG462 (protein)
chain: B1 chain with S368P, V421E, H461A
B10: I283T-P284D-N287P-S322T-N388M-R422L-C430N-L432F-L434W-S436N-dG462 (protein)
chain: B1 chain with S368P, V421E, R422L
B11: I283T-P284D-N285V-N287T-S322T-N388M-K394R-C430A-L432F-L434W-S436N-G462P-A463P (protein)
chain: B2 chain with P284D, P285V, E290Q, S365Q
B12: N388M-K394R-C430N-L432F-L434W-S436N-H444L (protein)
chain: B1 chain with T283I, D284P, P287N, T322S, S368P, K394R, V421E, H444L
B13: I283Q-P284D-N285M-N287T-S322T-N388M-K394R-C430A-L432F-L434W-S436N-G462P-A463P (protein)
chain: B2 chain with T283Q, P284D, P285M, E290Q, S365Q
B14: I283T-P284D-N285M-N287T-L289Q-S322T-N388M-K394R-C430A-L432F-L434W-S436N-G462P-A463P (protein)
chain: B2 chain with P284D, P285M, L289Q, E290Q, S365Q
B15: I283T-P284D-N285M-N287T-L289R-S322T-N388M-K394R-C430A-L432F-L434W-S436N-G462P-A463P (protein)
chain: B2 chain with P284D, P285M, L289R, E290Q, S365Q
B16: I283T-P284D-N287P-S322T-N388M-C430N-L432F-L434W-S436N-H461T-dG462 (protein)
chain: B1 chain with S368P, V421E, H461T
B17: I283T-P284D-N285M-E286A-N287T-S322T-N388M-K394R-C430A-L432F-L434W-S436N-G462P-A463P (protein)
chain: B2 chain with P284D, P285M, E286A, E290Q, S365Q
B18: I283T-P284D-N285S-N287T-S322T-N388M-K394R-C430A-L432F-L434W-S436N-G462P-A463P (protein)
chain: B2 chain with P284D, P285S, E290Q, S365Q
B19: I283T-P284D-N285T-N287T-S322T-N388M-K394R-C430A-L432F-L434W-S436N-G462P-A463P (protein)
chain: B2 chain with P284D, P285T, E290Q, S365Q
B20: I283T-P284D-N287P-S322T-N388M-C430N-L432F-L434W-S436N-dG462-S465V (protein)
chain: B1 chain with S368P, V421E, S465V
B21: I283T-P284D-N287P-S322T-H384A-N388M-C430N-L432F-L434W-S436N-dG462 (protein)
chain: B1 chain with S368P, H384A, V421E
B22: I283T-P284D-N285M-E286G-N287T-S322T-N388M-K394R-C430A-L432F-L434W-S436N-G462P-A463P (protein)
chain: B2 chain with P284D, P285M, E286G, E290Q, S365Q
B23: I283T-P284D-N285H-N287T-S322T-N388M-K394R-C430A-L432F-L434W-S436N-G462P-A463P (protein)
chain: B2 chain with P284D, P285H, E290Q, S365Q
B24: I283T-P284D-N285M-N287T-S288T-S322T-N388M-K394R-C430A-L432F-L434W-S436N-G462P-A463P (protein)
chain: B2 chain with P284D, P285M, S288T, E290Q, S365Q
B25: I283T-P284D-N287P-S322T-N388M-C430N-L432F-L434W-S436N-dG462-A463I (protein)
chain: B1 chain with S368P, V421E, A463I
B26: I283T-P284D-N285M-N287T-L289M-S322T-N388M-K394R-C430A-L432F-L434W-S436N-G462P-A463P (protein)
chain: B2 chain with P284D, P285M, L289M, E290Q, S365Q
B27: I283L-N285P-N287T-Q290E-S322T-N388M-K394R-C430A-L432F-L434W-S436N (protein)
chain: B2 chain with T283L, S365Q, P462G, P463A
B28: I283T-P284D-N287P-S322T-N388M-R422G-C430N-L432F-L434W-S436N-dG462 (protein)
chain: B1 chain with S368P, V421E, R422G
B29: I283H-P284D-N285M-N287T-S322T-N388M-K394R-C430A-L432F-L434W-S436N-G462P-A463P (protein)
chain: B2 chain with T283H, P284D, P285M, E290Q, S365Q
B30: I283T-P284D-N285M-N287T-S322T-N388M-K394R-C430T-L432F-L434W-S436N-G462P-A463P (protein)
chain: B2 chain with P284D, P285M, E290Q, S365Q, A430T
B31: I283T-P284D-N285M-E286D-N287T-S322T-N388M-K394R-C430A-L432F-L434W-S436N-G462P-A463P (protein)
chain: B2 chain with P284D, P285M, E286D, E290Q, S365Q
B32: I283T-P284D-N287P-S322T-N388M-C430N-L432F-L434W-S436N-dG462-A463F (protein)
chain: B1 chain with S368P, V421E, A463F
B33: P25L-I283T-P284D-N287P-S322T-N388M-C430N-L432F-L434W-S436N-dG462 (protein)
chain: B1 chain with P25L, S368P, V421E
B34: N388M-K394R-C430N-L432F-L434W-S436N-H444N (protein)
chain: B1 chain with T283I, D284P, P287N, T322S, S368P, K394R, V421E, H444N

System: 3-methylcrotonic acid
Assay type: biochemical, Yersinia frederiksenii
Set-up: key: “+” representing a low increase in activity; “++++” representing a high increase in activity

Molecule | Activity relative to WT
B1 | ++++
B2 | ++++
B3 | ++++
B4 | ++++
B5 | +
B6 | ++++
B7 | ++++
B8 | ++++
B9 | ++++
B10 | ++++
B11 | ++++
B12 | +
B13 | ++++
B14 | ++++
B15 | ++++
B16 | ++++
B17 | ++++

Molecule | Activity relative to WT
B18 | ++++
B19 | ++++
B20 | ++++
B21 | ++++
B22 | ++++
B23 | ++++
B24 | ++++
B25 | ++++
B26 | ++++
B27 | ++++
B28 | ++++
B29 | ++++
B30 | ++++
B31 | ++++
B32 | ++++
B33 | ++++
B34 | +
